# Data from patent US20200299408A1.
# Legend:
# [1] = target: human HER2 on cells (human) (UniProt P04626)
# [2] = target: HER2 extracellular domain (ECD) (UniProt P04626); assay: HER2 KD relative to 4D5 (WT); assay not stated
# [3] = target: HER2 extracellular domain (ECD) (UniProt P04626); assay: HER2 binding affinity of the HER2 arm; assay and form of HER2 not stated on the sheet or in the legend
substance,measurement,setting,value
hu4D5.v5 (bispecific antibody),EC50 of SKBR3 target cell killing,[1],0.075 µg/mL
same,SKBR3 EC50 fold (relative to 4D5),[1],9900 fold
same,KD fold,[2],31.2 fold
same,Kd,[3],0.0156 µM
